Results on 25 molecules are retold here after US20220025055A1 (Boehringer Ingelheim, published 2022).

Residue numbers refer to the chain shown, from its start.

First the molecules themselves.
B1: Humanized VH3 x Humanized VL1 (antibody, V domains shown)
VH: EVQLVESGGGLVQPGGSLRLSCAPSGFTFSNYGMAWVRQAPGKGLVWVSSIHSGGGDTYYRDSVKGRFTISRDNAKNTLYLQMNSLRAEDTAVYYCARGRTPTGYYFDHWGQGTMVTVSS
VL: DIQMTQSPSSLSASVGDRVTITCRASEGIHNGLAWYQQKPGKVPKLLIYNANSLHSGVPSRFSGSGSGTDFTLTISSLQPEDVATYFCQQYYDYPLTFGQGTKLEIK
B2: Humanized VH1 x Humanized VL3 (antibody, V domains shown)
VH: B1 VH with V5L, V46E, A75S
VL: B1 VL with D1A, M4L, V43A, G57R, V83F
B3: Humanized VH2 x Humanized VL1 (antibody, V domains shown)
VH: B1 VH with P24A, V46E, S49A, T78S
VL: B1 VL
B4: Humanized VH3 x Humanized VL5 (antibody, V domains shown)
VH: B1 VH
VL: EIVMTQSPATLSVSPGERATLSCRASEGIHNGLAWYQQKPGQAPRLLIYNANSLHSGIPARFSGSGSGTEFTLTISSLQSEDFAVYFCQQYYDYPLTFGQGTKLEIK
B5: Humanized VH4 x Humanized VL1 (antibody, V domains shown)
VH: B1 VH with E1Q, L11V, G16R, P24A, V46E, S49A, A75S, V93T
VL: B1 VL
B6: Humanized VH4 x Humanized VL4 (antibody, V domains shown)
VH: B1 VH with E1Q, L11V, G16R, P24A, V46E, S49A, A75S, V93T
VL: B1 VL with V43A, L46R, G57R, D70E, V83F, F87Y
B7: Humanized VH3 x Humanized VL3 (antibody, V domains shown)
VH: B1 VH
VL: B1 VL with D1A, M4L, V43A, G57R, V83F
B8: Humanized VH4 x Humanized VL3 (antibody, V domains shown)
VH: B1 VH with E1Q, L11V, G16R, P24A, V46E, S49A, A75S, V93T
VL: B1 VL with D1A, M4L, V43A, G57R, V83F
B9: Humanized VH1 x Humanized VL5 (antibody, V domains shown)
VH: B1 VH with V5L, V46E, A75S
VL: B4 VL
B10: Humanized VH2 x Humanized VL3 (antibody, V domains shown)
VH: B1 VH with P24A, V46E, S49A, T78S
VL: B1 VL with D1A, M4L, V43A, G57R, V83F
B11: Humanized VH4 x Humanized VL5 (antibody, V domains shown)
VH: B1 VH with E1Q, L11V, G16R, P24A, V46E, S49A, A75S, V93T
VL: B4 VL
B12: Humanized VH5 x Humanized VL4 (antibody, V domains shown)
VH: B1 VH with G10V, L11V, V46E, R61A, A75S, T78S, A88T, V93L
VL: B1 VL with V43A, L46R, G57R, D70E, V83F, F87Y
B13: Humanized VH1 x Humanized VL4 (antibody, V domains shown)
VH: B1 VH with V5L, V46E, A75S
VL: B1 VL with V43A, L46R, G57R, D70E, V83F, F87Y
B14: Humanized VH3 x Humanized VL2 (antibody, V domains shown)
VH: B1 VH
VL: B1 VL with D1A, V43A, V83F, F87Y
B15: Humanized VH5 x Humanized VL5 (antibody, V domains shown)
VH: B1 VH with G10V, L11V, V46E, R61A, A75S, T78S, A88T, V93L
VL: B4 VL
B16: Humanized VH5 x Humanized VL1 (antibody, V domains shown)
VH: B1 VH with G10V, L11V, V46E, R61A, A75S, T78S, A88T, V93L
VL: B1 VL
B17: Humanized VH1 x Humanized VL2 (antibody, V domains shown)
VH: B1 VH with V5L, V46E, A75S
VL: B1 VL with D1A, V43A, V83F, F87Y
B18: Humanized VH5 x Humanized VL3 (antibody, V domains shown)
VH: B1 VH with G10V, L11V, V46E, R61A, A75S, T78S, A88T, V93L
VL: B1 VL with D1A, M4L, V43A, G57R, V83F
B19: Humanized VH5 x Humanized VL2 (antibody, V domains shown)
VH: B1 VH with G10V, L11V, V46E, R61A, A75S, T78S, A88T, V93L
VL: B1 VL with D1A, V43A, V83F, F87Y
B20: Humanized VH4 x Humanized VL2 (antibody, V domains shown)
VH: B1 VH with E1Q, L11V, G16R, P24A, V46E, S49A, A75S, V93T
VL: B1 VL with D1A, V43A, V83F, F87Y
B21: NB1114 (antibody, V domains shown)
VH: B1 VH with V5L, V46E, A75S
VL: B1 VL with N31T
B22: NB1063 (antibody, V domains shown)
VH: B1 VH with V5L, V46E, A75S
VL: B1 VL
B23: NB1112 (antibody, V domains shown)
VH: B1 VH with V5L, V46E, A75S
VL: B1 VL with N31D
B24: NB1115 (antibody, V domains shown)
VH: B1 VH with V5L, V46E, A75S
VL: B1 VL with N31L

The first experiment deals with T1, human FLT3 (FMS-like tyrosine kinase 3) (human, UniProt P36888 27-993).
T1 sequence (looked up): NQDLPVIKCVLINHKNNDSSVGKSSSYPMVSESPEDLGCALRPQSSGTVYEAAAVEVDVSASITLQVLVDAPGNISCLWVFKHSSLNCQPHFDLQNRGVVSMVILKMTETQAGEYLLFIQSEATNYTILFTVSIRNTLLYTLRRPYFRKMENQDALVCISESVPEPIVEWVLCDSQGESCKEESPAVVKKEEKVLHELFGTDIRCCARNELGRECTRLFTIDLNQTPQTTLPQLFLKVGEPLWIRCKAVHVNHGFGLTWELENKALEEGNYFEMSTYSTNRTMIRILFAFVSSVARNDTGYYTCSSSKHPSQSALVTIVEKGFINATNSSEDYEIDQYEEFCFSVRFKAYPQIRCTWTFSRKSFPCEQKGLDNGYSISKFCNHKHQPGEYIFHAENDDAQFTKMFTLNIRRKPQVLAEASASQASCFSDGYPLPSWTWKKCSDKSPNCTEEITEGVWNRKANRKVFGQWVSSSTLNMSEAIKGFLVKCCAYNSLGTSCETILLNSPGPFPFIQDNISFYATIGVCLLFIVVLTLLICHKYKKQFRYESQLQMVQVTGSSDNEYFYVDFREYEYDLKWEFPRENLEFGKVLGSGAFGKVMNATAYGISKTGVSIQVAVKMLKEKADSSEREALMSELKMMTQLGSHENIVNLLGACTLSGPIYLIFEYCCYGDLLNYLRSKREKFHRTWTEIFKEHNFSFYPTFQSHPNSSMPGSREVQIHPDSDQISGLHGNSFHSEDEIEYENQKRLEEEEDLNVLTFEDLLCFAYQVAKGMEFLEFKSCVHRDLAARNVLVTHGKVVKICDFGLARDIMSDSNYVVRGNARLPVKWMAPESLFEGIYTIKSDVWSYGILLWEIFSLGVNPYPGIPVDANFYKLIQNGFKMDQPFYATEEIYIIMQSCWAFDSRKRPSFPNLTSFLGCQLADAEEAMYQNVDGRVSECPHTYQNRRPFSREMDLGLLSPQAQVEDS
The experiment in a line: cell-based or functional assay.
Regarding B1, the “EC50 in AML5 proliferation assay” value turned out to be 0.076 nM.
Take B2: the “EC50 in AML5 proliferation assay” value was determined as 0.105 nM.
With B3, the “EC50 in AML5 proliferation assay” value was 0.08 nM.
As to B4, the “EC50 in AML5 proliferation assay” value was found to be 0.07 nM.
Regarding B5, the “EC50 in AML5 proliferation assay” value stood at 0.082 nM.
Same read-out and setting: the same measure for B6: 0.095 nM.
B7: the “EC50 in AML5 proliferation assay” value came to 0.051 nM.
Regarding B8, the “EC50 in AML5 proliferation assay” value amounted to 0.091 nM.
As for B9, the “EC50 in AML5 proliferation assay” value came out at 0.097 nM.
As for B10, the “EC50 in AML5 proliferation assay” value amounted to 0.091 nM.
With B11, the “EC50 in AML5 proliferation assay” value was 0.098 nM.

The target of a further experiment is T1, human FLT3 (FMS-like tyrosine kinase 3). Description: cell-based or functional assay. This is another data set of the same source.
For the molecule “FLT3 ligand (FLT3L) (from UniProt P49771 27-181)”, the EC50 of expansion of HLA-DR+CD1c+ cells from primary human bone marrow, 12 days came out at 0.023 nM.

The next experiment has the same target. The experiment in a line: cell-based or functional assay. The source holds these as a separate data set.
B12: the “Single dose STAT5-Luc assay, activity relative to NB1016 (chimeric), antibody at 1 nM” value amounted to 77%.
As to B13, the “Single dose STAT5-Luc assay, activity relative to NB1016 (chimeric), antibody at 1 nM” value is 91%.
As to B14, the “Single dose STAT5-Luc assay, activity relative to NB1016 (chimeric), antibody at 1 nM” value came to 81%.
As for B15, the “Single dose STAT5-Luc assay, activity relative to NB1016 (chimeric), antibody at 1 nM” value stood at 75%.
Consider B16, for which the “Single dose STAT5-Luc assay, activity relative to NB1016 (chimeric), antibody at 1 nM” value is 83%.
Same read-out and setting: the same measure for B17: 72%; for B18: 31%.
Same read-out and setting: the same measure for B19: 53%; for B20: 90%.

The next experiment has the same target. Description: cell-based or functional assay. The source holds these as a separate data set.
B21: the “EC50 in AML5 proliferation assay” value was found to be 0.201 nM.
Regarding B22, the “EC50 in AML5 proliferation assay” value is 0.118 nM.
Same read-out and setting: for B23 the value was 0.27 nM.
Regarding B24, the “EC50 in AML5 proliferation assay” value stood at 0.135 nM.
